# In patent US12312397B2, “Anti-O2 antibodies and uses thereof” (priority 2016, dated 2025):
# Tests used:
# [1] = test system: K. pneumoniae O2; experiment: Mouse protection models (O2), Table 7 summary; assay type: in vivo, Klebsiella pneumoniae; parameters: key: +++: Strongly positive activity; +: Positive activity; +/−: Somewhat positive depending upon the test conditions; details: mouse pneumonia models
# Method: As described in more detail in below, anti-O2 LPS mAbs were tested for: 1) binding to O1 and O2 LPS (see Example 5); 2) LPS neutralization (LPS-Neut) against O1 and O2 LPS (see Example 7); 3) OPK against capsule mutant strain 43816ΔcpsB lux (O1) and 8570ΔcpsB lux (O2) (see Example 8); and 4) protective activity in pneumonia models (see Example 9). O2 LPS mAbs were subsequently divided into three classes based on their in vitro activities. Class I mAbs were characterized as Binding (O1+O2+)/OPK (O1−O2+); Class 2 mAbs were characterized as Binding (O1+O2+)/OPK (O1+O2+); and Class III mAbs were characterized as Binding (O1±O2+)/OPK (O1−O2+).
# (§1) C57/BL6 mice were obtained from Jackson Laboratories and maintained in a special pathogen-free facility. All animal experiments were conducted in accordance with Institutional Animal Care and Use Committee (IACUC) protocol and guidance. K. pneumoniae strains were grown on agar plates overnight and diluted in saline at proper concentration. The inoculum titer was determined by plating a serial dilution of bacteria onto agar plates prior to and post challenge. In acute pneumonia models, C57/BL6 mice were inoculated with 1e4 to 2e8 colony-forming units (CFU) of K. pneumoniae clinical isolates in 50 μl saline intranasally. Anti-K pneumoniae monoclonal antibodies (mAbs) and human IgG1 control antibodies were given 1-24 hour post bacterial challenge (therapeutic dosing). Mouse survival was monitored daily until up to day 8. Survival data of representative experiments were plotted in Graphpad Prism software.
# (§2) Mice were challenged with 2e8 CFU of Klebsiella pneumoniae Carbanpenemase (KPC) strain Kp961842_O2 or with 3e8 CFU of KPC strain Kp977778_O2, followed by the administration of anti-O2 mAbs. When administered at a concentration of 2 mg/kg 1 hour post bacterial infection, Class III anti-O2 LPS mAbs KPN42, KPN179-IgG1, and KPS44v2017 protected mice from lethal bacterial challenge with the multi-drug resistant KPC strains Kp961842_O2 (FIG. 6, left panel, and FIG. 10) and Kp977778_O2 (FIG. 6B, right panel).
# [2] = molecular target: O2 LPS; experiment: Octet binding assay, O2 LPS; parameters: species or system Klebsiella pneumoniae; details: average; calculated from on-rate and off-rate of Octet sensorgram; read-out: affinity constant (KD) to O2 LPS
# Method: The interaction of anti-O2 LPS mAbs with O1 and O2 LPS was further tested in solution phase by Octet platform. This platform provides a powerful tool to measure the rate of biomolecular complex formation and complex stability in a more biologically meaningful setting. Briefly, Protein A coated sensors were coated with 0.2 μg/mL anti-O2 LPS mAbs for 10 minutes before being dipped into solution containing 2 μg/mL O1 or O2 LPS in Kinetics buffer (ForteBio, dilute 10× to 1× with PBS). Changes in the number of molecules bound to the biosensor caused a shift in the interference pattern that was recorded in real time. […] The affinity constant (KD) of Class III mAbs to O2 LPS was calculated based on the on-rate and off-rate from Octet sensorgram.
# [3] = test system: O2 LPS activation of NF-κB in RAW264.7-lux cells; experiment: LPS neutralization assay (NF-κB luciferase, RAW264.7-lux), O2 LPS; assay type: cell-based, murine; parameters: key to LPS Neut O2: +++: Strongly positive activity; +: Positive activity; +/−: Somewhat positive depending upon the test conditions
# Outline: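 Serially diluted mAbs (human IgG1) pre-mixed 1:1 with LPS at 4 °C for 1 hr, then diluted 1:10 onto RAW264.7-lux cells carrying an NF-κB-driven firefly luciferase; 2.5 h at 37 °C. Luminescence read; % inhibition relative to no-antibody and negative-control mAb wells.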
# [4] = test system: KPC strain Kp977778_O2; experiment: Lethal pneumonia model, KPC strain Kp977778_O2; assay type: in vivo, Klebsiella pneumoniae; details: C57/BL6 mice, 3e8 CFU; mAb 2 mg/kg 1 hour post infection; survival
# Method: as §1, §2
molecule,measurement,setting,value
"KPN179: Class III anti-O2 antigen human mAb; VH SEQ ID NO: 53, VL SEQ ID NO: 54 (antibody, V domains shown, Description of Artificial Sequence: SyntheticKPN179 VH polypeptide; Description of Artificial Sequence: SyntheticKPN179 VL polypeptide) VH: EVQVVESGGGLVKPGGSLRLSCAASGFTFNNAWMNWVRQAPGKGLEWVGRIKRKADGETTDYPASVKGRFTVSRDDSKNTIYLQMNSLKTEDTAIYYCTTRIVTTNDYWGQGTLVTVSS VL: QSALTQPPSVSGSPGQSVTISCTGTSSDVGYYDYVSWYQQHHPGKAPKHMIYDVNKRPSGVPDRFSGSKSGNTASLTISGLQAEDEADYYCCSYAGGDTFVFGTGTKVTVL",Mouse protection models (O2),[1],+++
same,Kd,[2],7.98 nM
same,LPS Neut O2,[3]; Table 7 summary,+/−
same,neutralization of LPS-O2,[3]; secondary screening,did not show LPS-neutralizing activity
same,"protection from lethal bacterial challenge, Kp977778_O2",[4],protected
